Experimental findings from US6521594 are described below.

For test [1], the target named is Vitronectin receptor (human) (UniProt P06756). The test is described as follows: competition, ELISA or liposome assay, vitronectin coated. In general terms: An ELISA detects its analyte on a solid surface through an enzyme-linked reagent.
The target in test [2] is Platelet glycoprotein IIb/IIIa (human) (UniProt P08514). Briefly: ELISA.
The target of test [3] is αvβ5. The test is described as follows: ELISA.
In test [4] the target is Platelet glycoprotein IIb/IIIa (human) (UniProt P08514). Briefly: cell-based or functional assay.

Non-standard residues stand in square brackets, D forms with d. No end group written: not given here. *: point of attachment. Pmc = Cc1c(C)c(S(=O)(=O)*)c(C)c2c1OC(C)(C)CC2; 2Nal = N[C@@H](Cc1ccc2ccccc2c1)C(=O)O; Pen = CC(C)(S)[C@H](N)C(=O)O

The IC50 is the concentration needed to halve the response being measured. A higher IC50 goes with lower potency. The substance “G[Pen]GRGDRPCR (cysteine pairing not given here)” displayed an IC50 in test [1] of 0.01 µM.

Substance Ac(dPen)IPRGD(O-Me-Tyr)RC-NH2 yielded an IC50 in test [2] of 0.002 µM. As for R(Pmc)GHRGD[2Nal]RCR, in test [3], the IC50 came out at 10 µM.

The substance (Mpr)NPRGD(Y-OMe)RC-NH2 had an IC50 in test [3] of 3 µM.

Regarding “R(Pmc)GHRGD(O-Me-Tyr)RCR (Table I, row r54) (peptide)”, in test [4], the IC50, ADP-Stimulated Aggregation turned out to be 0.44 µM.

In test [4], R2(Pen)GRGDTPCA (peptide) returned an IC50, ADP-Stimulated Aggregation of 8.2 µM and an IC50, Thrombin Stimulated Aggregation of 2.7 µM. In test [4], “analogue 18 (Asp for Gly at position -2 of R(Pmc)GHRGD(Y-OMe)RCR) (peptide)” displayed a fold decrease in potency relative to analogue 11 of 4 fold.

R(Pmc)GYRGD(Y-OMe)RCR yielded an IC50 in test [3] of 8.8 µM. The same measure, in the same setting: for Ac-(Pmc)NPRGD(Y-OMe)RC-NH2 the value was 2.34 µM.

Take R(Pmc)G(DY)RGD(Y-OMe)RCR: in test [3], the IC50 stood at 10 µM.

In turn, Ac-CNPRGD(Y-OMe)LC-NH2 yielded an IC50 in test [3] of 7.14 µM. In turn, R(Pmc)GHRGD(p-Cl-F)RCR came in with an IC50 in test [3] of 15.3 µM.
